Results from the DeepSol protein solubility set.

Assay: soluble on expression in E. coli; label from the status in PepcDB or PDB records

Sequence | soluble on expression in E. coli
MGSDKIHHHHHHMQMDLETAVMKKKESLNETDKAIVSYLLKYPEDASKLSLMELAQKLYVSKSAIFRLSKKLGLSGFSELKFELTELTNKKVQNKKYVQELDFNNNLHQIIDETFKYFKDANFHDLFIDLDNAETIYIYSTGWQQQIIAEYLAHSFFLIGKKAIILPSAKDEVAMLGRSIEENDMLFVISFGGFNKTIIEELKKIDTVTDKLKFVSLTSWQPGKIASLSDYSFFFKTTPFQISNQNAVTFSSAYVLIDLIINEYGKHCNSKK | not soluble
MSLKLLAIDSATQAATCAVMDDDKLLGEITFNYKKQHSVILMSMIDDMLNTVNLKVEDLDGFVVSKGPGSFTGLRIGMSIVKGLSEGSKKPFVSVSSLDALAYNMAYTPGIICPVLDALRDNVYTALYTFEGNSLKRLTEYDAIHITELIELLKGYDSQVTFIGDAVYKFRNFFDENVENVQFAPAHLNLVRSSSLCELGMELLKSGVKDDLITSAPIYIRKSQAEREYEKRTGMSIDDEGHHHHHH | soluble
MRRNSKERKNRATRRSQGSYQEIIGRTWIFRGAHRGRVTRRNIIWHELIGLRVRIVGSTHPAFVGIEGYVIDETRNMLVIAGDRIWKVPKDVCIFEFEADDGTKIKIPGERLVGRPEMRLKKRWKKWLEHHHHHH | not soluble
GPGSMQKENDRMRKKKDEAREEEEISIFHCDDGSVYEGRVTRREIPVELPLGMPTPAPASTLRGQPPPEVMPQIVPIQHGKGIFKDAGGTIYDGNWIEGAMCGEGVLQFPSGATYTGGMRANEFCGTGTYNWPDGSRYEGQWENNRMHGFGVYVDAQGGRWAGKFYRGCGVGLLGEIHL | soluble
MEYELLIREAEPKDAAELVAFLNRVSLETDFTSLDGDGILLTSEEMEIFLNKQASSDNQITLLAFLNGKIAGIVNITADQRKRVRHIGDLFIVIGKRYWNNGLGSLLLEEAIEWAQASGILRRLQLTVQTRNQAAVHLYQKHGFVIEGSQERGAYIEEGKFIDVYLMGKLIG | soluble
MGSDKIHHHHHHMTTIFIEKATILDAEKLTEIMTRTFDEEEKRWLCGQGDVIDYNIQPPGYSSVEMMRYSIEELDCYKVIMDGKIIGGIIVTISGKSYGRIDRIFVEPVYQGKGIGSYVIKLIEEEYPSIRIWDLETSSRQLNNHHFYKKMGYETIFKSEDEYCYVKRITVESAEENLIKNKDMKNSQYENCNLANTEYYQVNLKNSSFVGSNMMNMKMSNCNVRQSNFRNINFRNSSYADLNLSGSKFNFVTLGGVQFKDTSLGEDKDPISFNRCDLEGSTISNSNLKNMDIENCDITGMKINGIPIEKLLALYNKVKS | not soluble
MLIPSKLSRPVRLDHTVVRERLLAKLSGANNFRLALVTSPAGYGKTTLVSQWAAGKNELGWYSLDEGDNQQERFASYLIAAIQQATGGHCSTSEAMAQKRQYASLTSLFAQLFIELAQWHRPLYLVIDDYHLITNPVIHDAMRFFLRHQPENFTLVVLSRNLPQLGIANLRVRDQLLEIGSQQLAFNHQEAKQFFDRRLSSPIEAAESSRMCDDVAGWATALQLIALSARQNHTSAHHSARRLAGINASHLSDYLVDEVLDNVDVSTRHFLLKSAILRSMNDALIVRVTGEENGQMRLEEIERQGLFLQRMDDTGEWFSYHPLFGSFLRQRCQWELAAELPEIHRAAAESWMEQGFPSEAIHHALAAGDAQMLRDILLNHAWGLFNHSELALLEESLKALPWESLLENPRLVLLQAWLMQSQHRYSEVNTLLARAEQEIKGVMDGTLHAEFNALRAQVAINDGNPEEAERLAKLALDELPLAWFYSRIVATSVHGEVLHCKGDLSQSLSLMQQTEQMARHHDVWHYALWSLIQQSEIQFAQGFLQAAWETQERAFQLIKEQHLEQLPMHEFLVRIRAQLLWAWARLDEAEASARSGIAVLSTFQPQQQLQCLTLLVQCSLARGDLDNARSQLNRLENLLGNGRYHCDWISNADKVRVIYWQLTGDKKSAANWLRHTPKPAFANNHFLQGQWRNIARAQILLGEFEPAEIVLEELNENARSLRLMSDLNCNLLLLNQLYWQSGRKNDAQRVLLDALQLANRTGFISHFVIEGEAMAQQLRQLIQLNTLPEMEQHRAQRILREINQHHRHKFAHFDEGFVERLLNHPDVPELIRTSPLTQREWQVLGLIYSGYSNEQIAGELAVAATTIKTHIRNLYQKLGVAHRQDAVQHAQQLLKMMGYGV | not soluble
MLELSESNIHLNANAIDKQQAIEMAVSALVQAGNVENGYLQGMLARELQTSTFLGNGIAIPHGTLDTRLMVKKTGVQVFQFPQGIEWGEGNIAYVVIGIAARSDEHLSLLRQLTHVLSDEDTAAKLAKITDVAEFCAILMGETIDPFEIPAANISLDVNTQSLLTLVAINAGQLQVQSAVENRFISEVINNAALPLGKGLWVTDSVVGNVKNALAFSRAKTIFSHNGKAVKGVITVSAVGDQINPTLVRLLDDDVQTTLLNGNSTEILTALLGSSSDVETQSVEGAVVGTFTIRNEHGLHARPSANLVNEVKKFTSKITMQNLTRESEVVSAKSLMKIVALGVTQGHRLRFVAEGEDAKQAIESLGKAIANGLGENVSAVPPSEPDTIEIMGDQIHTPAVTEDDNLPANAIEAVFVIKNEQGLHARPSAILVNEVKKYNASVAVQNLDRNSQLVSAKSLMKIVALGVVKGTRLRFVATGEEAQQAIDGIGAVIESGLGE | not soluble
MGSDKIHHHHHHAQLVERVCRTDYKISPERKGELLLELDNISFFKDNEFAGTVIKGYSLPGLWIQPKFVYYPLKNIKLEGGVHMLWFSGAYRYPSVSYQDIALWKGEQYQKGAHLLPFFRAQISMKSVDLILGNIYGGSNHGLIAPLYNPELNLTADPETGFQVLAGAPWIDLDAWIDWQSFIFRDDTHQEAFTVGLSTRFKLNAPSSTFHCYIPLQILAQHRGGEIDTIRESSVQTLMNGAVGAGVTWNIDRRILKRVNVELDAAGYYQQKGELWPYHKGIGVYSSAFVDLGNFRVKMGHWICNDFITMFGIPYFGTVSTKKEGITYDKPQTLFCSIEYSRMFGKHYALGLKADAYQFFPGTMRSANGELTSPGSTTSFSVGVYFRINPSFLLKKF | not soluble
MSLSETLRLGLICAGRMGSFHGQTAALRIPGACLAAIADPTPGQAARLATELGVERFYTDPQQLLDDPDIDGVLIAAPARSHAELVISAARAGKGVFCEKPMAITLDEADRAIAAAADAQVTLQVGFNRRFAKSFRTAHLDVVAGRIGTPQLLRSLTRDPALNNPAASPQWVIFLETLIHDFDSLRYLNPGAEAVEVFVMADALIAPDYKSKGFLDTAVVTIRFDNGAIATAEANFQAVYGYDVRGEVFGSAGMLTMGSVNDSDLVRYLANGIQSDTQRLDTDLLRDAYVAELNHFADCLRTGAKPLASGEDARAALAIARACIESFQLGKAVRVEGARSEGHHHHHH | not soluble
MGNVMLSKRKSGSMADDTGEHPVCFNCTLRVDQTIHVKCFECPLRICILCFQCGAESPPHRRGHNYELVKPTSNPEAMSWTHEDEFELLKAAHKFKMGNWGEIAESIGRGRKDGHNCKDYFEKHFVRGWIGQFSIKSSSWDRIKYGMYINQTLDSVLQKNCLESTERMLLIRDAVRASGESWDENDPKLAIKVQQVLEQYVQKVIDGDIETKYERPKFLTNQYETELSPDDCDPDNERDMKSKRSVKQEINTDDSDNDNSPGPSSSCRKKGPPSPKRRKTTRVMRESSSDSDDDKSQASDKDTYHGMERETEEEDPPSAFETAQEFDTEDEEEEKKPKRGTASSSKRRKRRRMWVSKKDRRLHEFRKKMNQEVKELRSAYPRLLHESGVSKSETRPKMRRSDELKILGYNNEREELECEWFNEAEQLISRLTISATEPQKDQRLDMENDIKFARLRHYVRLLGIRKAKRNTVLEHDKINEFMKFYQEACYAAAKRPVSQQEIMDSRTEKEKLLAMTQQFLTRDEYRSLRASIERIDNVVERIEVLQDLQKNGETTLKNAPVERKSKKKMRKIDCEQKKKIATEWSKFKKWHTEGWE | not soluble
MSFATISVIGLGYIGLPTAAAFASRQKQVIGVDINQHAVDTINRGEIHIVEPDLASVVKTAVEGGFLRASTTPVEADAWLIAVPTPFKGDHEPDMTYVESAARSIAPVLKKGALVILESTSPVGSTEKMAEWLAEMRPDLTFPQQVGEQADVNIAYCPERVLPGQVMVELIKNDRVIGGMTPVCSARASELYKIFLEGECVVTNSRTAEMCKLTENSFRDVNIAFANELSLICADQGINVWELIRLANRHPRVNILQPGPGVGGHCIAVDPWFIVAQNPQQARLIRTAREVNDHKPFWVIDQVKAAVADCLAATDKRASELKIACFGLAFKPNIDDLRESPAMEIAELIAQWHSGETLVVEPNIHQLPKKLTGLCTLAQLDEALATADVLVMLVDHSQFKVINGDNVHQQYVVDAKGVWR | not soluble
MSLESGELIGACEFMKDRLYFATLRNRPKSTVNTHYFSIDEELVYENFYADFGPLNLAMVYRYCCKLNKKLKSYSLSRKKIVHYTCFDQRKRANAAFLIGAYAVIYLKKTPEEAYRALLSGSNPPYLPFRDASFGNCTYNLTILDCLQGIRKGLQHGFFDFETFDVDEYEHYERVENGDFNWIVPGKFLAFSGPHPKSKIENGYPLHAPEAYFPYFKKHNVTAVVRLNKKIYEAKRFTDAGFEHYDLFFIDGSTPSDNIVRRFLNICENTEGAIAVHCKAGLGRTGTLIACYVMKHYRFTHAEIIAWIRICRPGSIIGPQQHFLEEKQASLWVQGDIFRSKLKNRPSSEGEGHHHHHH | soluble
MENTENSVDSKSIKNLEPKIIHGSESMDSGISLDNSYKMDYPEMGLCIIINNKNFHKSTGMTSRSGTDVDAANLRETFRNLKYEVRNKNDLTREEIVELMRDVSKEDHSKRSSFVCVLLSHGEEGIIFGTNGPVDLKKITNFFRGDRCRSLTGKPKLFIIQACRGTELDCGIETDSGVDDDMACHKIPVDADFLYAYSTAPGYYSWRNSKDGSWFIQSLCAMLKQYADKLEFMHILTRVNRKVATEFESFSFDATFHAKKQIPCIVSMLTKELYFYH | soluble
MKLKVVYRKVSDYICYDLKEIVLPSSLPDPPHVVKRRKLTWHERFLVLKEASRLYAASWVRDIGPELRPNDYKKQGDAEPKKQAKEAENEPSVLEDLAVAARGGMETLRPALHRLYMTRASNYKDALTSFIKGYHEGLQQVMQNKAESEAPADEADKSKKTT | soluble
MSLSPPLTLNPEQAVAVASIFEHIHHYQCFLLQGVTGSGKTEVYLHVIAKILEQGKQVLVLVPEIGLTPQLLSRFTARFNHPITVLHSNLNESERQIAWQLAKENKVKMVIGTRSAVFTPLPNLGLIIIDEEHDSSLKQMEGVRYSARDTALMRAHLANIPIILGTATPSLETIHNCKQKKYNLLRLTHKAASTTPLHYQLIDLRSQMVQHGLALPTLKIIENHLLQQNQVLVFINRRGFAPVLLCHQCGWMVDCKACDSHLTLHKQAGQMICHHCGLTQRIPLFCNNCQSKELIPVGSGTQRIYEFLSHQFPDTNVLRIDRDEVRKKNSLNSHLDKINKGEAQLIIGTQMLAKGHHFPRLSLVVVVDADAGFYNQDFRAIEHLGQLLTQVSGRAGRAEHPGQVLIQTYLPDHPLLNLLIQHGYDEFANALLISRQEAEMPPFQFLAVIRAQGRTVSKVDQFLKATKDQIQAHPLTVLGPAPAPLPRKANQHRMQLLIKSPSRKVLKSSLTQLREWLTMNKLSNGIRWNVDVDPMDLSEGHHHHHH | not soluble
SESQDIKALQKELEQFAKLLKQKRITLGYTQADVGLTLGVLFGKVFSQTTICRFEALQLSFKNMCKLRPLLQKWVEEADNNENLQEICKAETLVQARKRKRTSIENRVRGNLENLFLQCPKPTLQQISHIAQQLGLEKDVVRVWFCNRRQKGKRSSSDYAQ | soluble
MTARIYKPAKNAMQSGTAKTREWQLDYEPETPRTIEPLMGWTSSSDMQQQVSLRFHTRDEAVAYCEREGIPYQLIEPKEPVRRRAAYADNFAFRRPEPWTH | soluble
